According to patent publication US20080025990A1 (Eli Lilly, published 2008):
“And” between values parts separate entries of the source, which are not always exact repeats. Equal entries are not always repeated.

What was measured:
[1] = biological target: T1, native human IGF-IR on human tumor cells (human, UniProt P08069 31-1367); experiment: cell-based or functional assay
[2] = biological target: T1, native human IGF-IR on human tumor cells; experiment: cell-based or functional assay; remark: listed apart in the source
[3] = biological target: recombinant extracellular portion of human IGF-IR (soluble IGF-IR) (human) (UniProt P08069); experiment: comparison of affinities (BIAcore, Table 3)
[4] = biological target: T1, native human IGF-IR on human tumor cells; experiment: cell-based or functional assay; remark: listed apart in the source
[5] = biological target: T1, native human IGF-IR on human tumor cells; experiment: inhibition of 125I-IGF-I binding to MCF7 (breast) cells
Description: (§1) The anti-IGF-IR antibodies were then tested for blocking of radiolabeled ligand to native IGF-IR on human tumor cells. […] MCF7 human breast cancer cells were seeded into 24 well dishes, and cultured overnight. Sub-confluent monolayers were washed 2-3 times in binding buffer (Iscove's Medium/0.1% BSA) and antibody added in binding buffer. […] The wells were then washed three times with ice-cold PBS/0.1% BSA. Monolayers were then lysed with 200 μl 0.5N NaOH and counted in a gamma counter.

[6] = biological target: T1, native human IGF-IR on human tumor cells; experiment: inhibition of 125I-IGF-I binding to T47D (breast) cells
[7] = biological target: T1, native human IGF-IR on human tumor cells; experiment: inhibition of 125I-IGF-I binding to 8226 (myeloma) cells
[8] = biological target: T1, native human IGF-IR on human tumor cells; experiment: inhibition of 125I-IGF-I binding to OV90 (ovarian) cells
[9] = biological target: T1, native human IGF-IR on human tumor cells; experiment: inhibition of 125I-IGF-I binding to HPAC (pancreatic) cells
[10] = biological target: T1, native human IGF-IR on human tumor cells; experiment: inhibition of 125I-IGF-I binding to BXPC3 (pancreatic) cells
[11] = biological target: T1, native human IGF-IR on human tumor cells; experiment: inhibition of 125I-IGF-I binding to HT-29 (colorectal) cells
[12] = biological target: recombinant extracellular portion of human IGF-IR (soluble IGF-IR) (human) (UniProt P08069); experiment: inhibition of 125I-IGF-I binding to immobilized IGF-IR, A12 against 2F8
[13] = biological target: T1, native human IGF-IR on human tumor cells; experiment: inhibition of 125I-IGF-I binding to SK-ES1 (Ewing sarcoma) cells
[14] = biological target: T1, native human IGF-IR on human tumor cells; experiment: inhibition of 125I-IGF-I binding to MCF7 cells (the 3 nM is written at Table 4)
Description: as §1

[15] = biological target: recombinant extracellular portion of human IGF-IR (soluble IGF-IR) (human) (UniProt P08069); experiment: inhibition of 125I-IGF-I binding to immobilized human IGF-IR, full IgG; 'Blocking (EC50)'
[16] = biological target: recombinant extracellular portion of human IGF-IR (soluble IGF-IR) (human) (UniProt P08069); experiment: human IGF-IR ELISA, full IgG; column head 'Binding (ED50)', concentration for 50% binding relative to saturation
[17] = biological target: recombinant extracellular portion of human IGF-IR (soluble IGF-IR) (human) (UniProt P08069); experiment: BIAcore binding kinetic analysis
[18] = biological target: T1, native human IGF-IR on human tumor cells; experiment: inhibition of 125I-IGF-I binding to MCF7 cells
Description: as §1

[19] = biological target: recombinant extracellular portion of human IGF-IR (soluble IGF-IR) (human) (UniProt P08069); experiment: BIAcore 3000, soluble IGF-IR immobilized on the chip, full IgG
[20] = biological target: recombinant extracellular portion of human IGF-IR (soluble IGF-IR) (human) (UniProt P08069); experiment: inhibition of 125I-IGF-I binding to immobilized human IGF-IR, full IgG; 'Blocking (EC50)'; lower end of the printed range 3-6 nM
[21] = biological target: recombinant extracellular portion of human IGF-IR (soluble IGF-IR) (human) (UniProt P08069); experiment: inhibition of 125I-IGF-I binding to immobilized human IGF-IR, full IgG; 'Blocking (EC50)'; upper end of the printed range 3-6 nM

B1: antibody A12, full length human IgG1 with lambda light chain (antibody, V domains shown)
VH: EVQLVQSGAEVKKPGSSVKVSCKASGGTFSSYAISWVRQAPGQGLEWMGGIIPIFGTANYAQKFQGRVTITADKSTSTAYMELSSLRSEDTAVYYCARAPLRFLEWSTQDHYYYYYMDVWGKGTTVTVSS
VL: SSELTQDPAVSVALGQTVRITCQGDSLRSYYATWYQQKPGQAPILVIYGENKRPSGIPDRFSGSSSGNTASLTITGAQAEDEADYYCKSRDGSGQHLVFGGGTKLTVLG
notes: also called IMC-A12; mAb A12
[1]
  reduction in IGF-IR surface staining of MCF7 cells after 4 h with 50 nM A12 at 37 C (FACS, mean fluorescence intensity ratio): 90%
[2]
  IC50 of inhibition of IGF-I-stimulated [3H]thymidine incorporation (mitogenesis), MCF7 breast: 6 nM
  IC50 of inhibition of mitogenesis, 8226 myeloma: 5 nM
  IC50 of inhibition of mitogenesis, BT474 breast: 5 nM
  IC50 of inhibition of mitogenesis, BXPC3 pancreatic: 2 nM
  IC50 of inhibition of mitogenesis, HT-29 colorectal: 6 nM
  IC50 of inhibition of mitogenesis, SK-ES1 Ewing sarcoma: 10 nM
  IC50 of inhibition of mitogenesis, T47D breast: 7 nM
[3]
  fold higher affinity relative to 2F8: 10 fold
[4]
  surface IGF-IR staining of MCF7 cells (mean fluorescence intensity ratio) after 4 hours with A12; untreated cells 35.7, control 1: 3.3
[5]
  IC50: 3 nM
[6]
  IC50: 6 nM
[7]
  IC50: 20 nM
[8]
  IC50: 6 nM
[9]
  IC50: 10 nM
[10]
  IC50: 20 nM
[11]
  IC50: 10 nM
[12]
  fold increase in blocking activity relative to 2F8: > 3 fold
[13]
  IC50: 2 nM
[14]
  IC50: 0.45 µg/mL
[15]
  IC50: 0.6 to 1 nM
[16]
  EC50: 0.3 nM

B2: antibody 2F8, full length human IgG1 with lambda light chain (antibody, V domains shown)
VH: B1 VH
VL: SSELTQDPAVSVALGQTVRITCQGDSLRSYYASWYQQKPGQAPVLVIYGKNNRPSGIPDRFSGSSSGNTASLTITGAQAEDEADYYCNSRDNSDNRLIFGGGTKLTVLS
notes: Tested as full IgG1 (human gamma 1 constant region) with full-length lambda light chain; also called IMC-2F8; 2F8 IgG
[17]
  Kd: 0.5 to 1 nM
[18]
  IC50: 30 nM and 4.5 µg/mL
[19]
  Kd: 0.65 nM
[16]
  EC50: 2 nM
[20]
  IC50: > 3 nM
[21]
  IC50: < 6 nM
